{
  "source": "patent US20220033904A1",
  "about": "(CHILDREN S MEDICAL CENTER, published 2022)",
  "binders": {"B1": {"name": "TMEM79-Flag (other)", "chain": "MTEPETLALLDMKEPETPEKSPPQALVLQSEEEGGTESPGTESLRVGSSVGSPIVREGPEDGPDSTISEAATLPWGTDPHPSAPLPDPPGWRDIEPEPLESEAPTKSEEPFKEDANLLPEKTVRAFVPIDLQCIERKPQEERILHRDAGPGELRNFLPARLSHPEPPERKWAEAVVRPPGRSCGGCGSCGGREALRAVASVVAALIFFPCLLYGAYAFLPFDAPRLPTMSSRLVYTLRCGVFATFPIVLGLLVYGLSLLCFSALRPFGEPRREVEIHRQYVAQSVQLFILYFFNLAVLSTYLPQDTLKLLPLLTGLFAISRLIYWLTFAVGRSFRGFGYGLTFLPLLAMLVWNLYYMFVVEPERMLTASESRLDYPDHARSVSDYRPRSWG", "notes": "Expressed in HEK293T cells; co-IP from lysates; not shown: Flag tag at the C-terminus"}, "B2": {"name": "TMEM79 (other)", "chain": "MTEPETLALLDMKEPETPEKSPPQALVLQSEEEGGTESPGTESLRVGSSVGSPIVREGPEDGPDSTISEAATLPWGTDPHPSAPLPDPPGWRDIEPEPLESEAPTKSEEPFKEDANLLPEKTVRAFVPIDLQCIERKPQEERILHRDAGPGELRNFLPARLSHPEPPERKWAEAVVRPPGRSCGGCGSCGGREALRAVASVVAALIFFPCLLYGAYAFLPFDAPRLPTMSSRLVYTLRCGVFATFPIVLGLLVYGLSLLCFSALRPFGEPRREVEIHRQYVAQSVQLFILYFFNLAVLSTYLPQDTLKLLPLLTGLFAISRLIYWLTFAVGRSFRGFGYGLTFLPLLAMLVWNLYYMFVVEPERMLTASESRLDYPDHARSVSDYRPRSWG", "notes": "It was expressed in HEK293T cells and tested by co-IP from lysates; also called Mattrin; full length TMEM79; not shown: Myc or Flag tag or both at the C-terminus"}, "B3": {"name": "USP8C (protein)", "chain": "RSYSSPDITQAIQEEEKRKPTVTPTVNRENKPTCYPKAEISRLSASQIRNLNPVFGGSGPALTGLRNLGNTCYMNSILQCLCNAPHLADYFNRNCYQDDINRSNLLGHKGEVAEEFGIIMKALWTGQYRYISPKDFKITIGKINDQFAGYSQQDSQELLLFLMDGLHEDLNKADNRKRYKEENNDHLDDFKAAEHAWQKHKQLNESIIVALFQGQFKSTVQCLTCHKKSRTFEAFMYLSLPLASTSKCTLQDCLRLFSKEEKLTDNNRFYCSHCRARRDSLKKIEIWKLPPVLLVHLKRFSYDGRWKQKLQTSVDFPLENLDLSQYVIGPKNNLKKYNLFSVSNHYGGLDGGHYTAYCKNAARQRWFKFDDHEVSDISVSSVKSSAAYILFYTSLGPRVTDVAT"}},
  "key": {"LRP6": {"molecular_target": "T1, LRP6 (human, UniProt O75581 20-1613)", "T1 construct": "whole, on cells; The legend says 'endogenous FZD5 but not LRP6'", "T1 sequence (O75581 20-1613)": "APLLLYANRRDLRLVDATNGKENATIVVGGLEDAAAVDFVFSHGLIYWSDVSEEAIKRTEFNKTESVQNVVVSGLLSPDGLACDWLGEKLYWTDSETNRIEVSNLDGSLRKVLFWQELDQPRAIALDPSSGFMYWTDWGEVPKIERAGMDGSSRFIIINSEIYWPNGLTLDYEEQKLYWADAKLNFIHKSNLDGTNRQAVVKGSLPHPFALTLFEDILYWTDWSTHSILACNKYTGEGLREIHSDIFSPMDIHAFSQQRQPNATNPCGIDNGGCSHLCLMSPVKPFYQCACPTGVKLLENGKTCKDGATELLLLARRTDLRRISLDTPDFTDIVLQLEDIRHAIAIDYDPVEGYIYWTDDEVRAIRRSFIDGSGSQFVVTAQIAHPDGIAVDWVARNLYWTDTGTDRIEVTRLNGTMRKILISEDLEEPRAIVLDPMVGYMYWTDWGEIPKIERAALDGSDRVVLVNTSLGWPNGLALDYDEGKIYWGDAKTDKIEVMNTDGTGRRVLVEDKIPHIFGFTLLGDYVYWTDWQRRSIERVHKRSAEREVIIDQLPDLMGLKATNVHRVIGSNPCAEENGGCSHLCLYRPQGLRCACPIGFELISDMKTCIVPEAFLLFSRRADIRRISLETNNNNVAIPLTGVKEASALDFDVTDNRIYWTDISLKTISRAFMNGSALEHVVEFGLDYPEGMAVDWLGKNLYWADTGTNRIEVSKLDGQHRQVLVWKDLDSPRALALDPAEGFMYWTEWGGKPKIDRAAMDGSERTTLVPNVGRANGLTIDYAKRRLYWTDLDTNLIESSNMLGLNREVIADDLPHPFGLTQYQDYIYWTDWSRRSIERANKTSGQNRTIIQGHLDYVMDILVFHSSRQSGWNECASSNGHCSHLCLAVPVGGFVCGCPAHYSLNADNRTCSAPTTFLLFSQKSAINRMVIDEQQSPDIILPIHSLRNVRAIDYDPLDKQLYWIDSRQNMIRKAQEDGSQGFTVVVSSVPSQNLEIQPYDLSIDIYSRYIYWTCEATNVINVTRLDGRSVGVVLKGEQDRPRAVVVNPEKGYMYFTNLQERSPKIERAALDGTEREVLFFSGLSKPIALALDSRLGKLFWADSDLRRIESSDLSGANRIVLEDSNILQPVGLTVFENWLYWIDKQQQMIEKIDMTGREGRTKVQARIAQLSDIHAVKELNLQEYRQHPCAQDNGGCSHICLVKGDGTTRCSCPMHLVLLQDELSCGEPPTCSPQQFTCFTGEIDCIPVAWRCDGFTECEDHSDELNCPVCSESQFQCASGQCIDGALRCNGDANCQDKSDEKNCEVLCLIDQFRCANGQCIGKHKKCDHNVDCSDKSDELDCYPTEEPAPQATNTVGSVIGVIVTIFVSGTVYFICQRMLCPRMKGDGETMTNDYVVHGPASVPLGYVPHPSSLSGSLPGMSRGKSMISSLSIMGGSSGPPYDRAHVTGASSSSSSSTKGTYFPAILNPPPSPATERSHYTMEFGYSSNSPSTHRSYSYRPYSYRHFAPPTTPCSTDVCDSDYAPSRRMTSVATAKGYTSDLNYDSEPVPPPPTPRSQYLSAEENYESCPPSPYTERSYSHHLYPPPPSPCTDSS", "assay": "co-IP, immunoblot (FIG. 3F)"}, "USP8N": {"molecular_target": "T2, USP8N (UniProt P40818 1-714, limits assumed)", "T2 construct": "domain: USP8 N terminus; also called USP8 N terminus; N-terminal half of USP8", "T2 sequence (looked up)": "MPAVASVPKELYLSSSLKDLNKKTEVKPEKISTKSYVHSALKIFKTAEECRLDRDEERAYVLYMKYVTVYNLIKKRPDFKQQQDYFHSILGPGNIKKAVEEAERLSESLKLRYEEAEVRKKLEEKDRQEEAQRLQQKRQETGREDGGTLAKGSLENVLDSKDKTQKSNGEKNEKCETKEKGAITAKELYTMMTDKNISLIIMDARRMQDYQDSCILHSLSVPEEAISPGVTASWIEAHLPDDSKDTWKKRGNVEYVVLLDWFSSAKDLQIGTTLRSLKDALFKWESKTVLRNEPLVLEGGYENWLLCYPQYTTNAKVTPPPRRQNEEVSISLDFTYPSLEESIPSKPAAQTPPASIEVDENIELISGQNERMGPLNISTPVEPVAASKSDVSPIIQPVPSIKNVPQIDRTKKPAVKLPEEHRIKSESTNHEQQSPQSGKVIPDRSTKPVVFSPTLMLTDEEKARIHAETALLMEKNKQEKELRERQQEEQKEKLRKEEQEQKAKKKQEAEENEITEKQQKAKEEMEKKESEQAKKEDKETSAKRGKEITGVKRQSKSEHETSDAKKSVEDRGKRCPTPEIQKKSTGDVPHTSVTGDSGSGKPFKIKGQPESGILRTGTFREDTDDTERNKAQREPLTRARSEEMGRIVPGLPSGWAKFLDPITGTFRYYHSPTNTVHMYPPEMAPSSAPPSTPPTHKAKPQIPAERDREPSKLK", "assay": "co-IP, immunoblot (FIG. 5C)"}, "FZD5": {"molecular_target": "T3, FZD5", "T3 chain": "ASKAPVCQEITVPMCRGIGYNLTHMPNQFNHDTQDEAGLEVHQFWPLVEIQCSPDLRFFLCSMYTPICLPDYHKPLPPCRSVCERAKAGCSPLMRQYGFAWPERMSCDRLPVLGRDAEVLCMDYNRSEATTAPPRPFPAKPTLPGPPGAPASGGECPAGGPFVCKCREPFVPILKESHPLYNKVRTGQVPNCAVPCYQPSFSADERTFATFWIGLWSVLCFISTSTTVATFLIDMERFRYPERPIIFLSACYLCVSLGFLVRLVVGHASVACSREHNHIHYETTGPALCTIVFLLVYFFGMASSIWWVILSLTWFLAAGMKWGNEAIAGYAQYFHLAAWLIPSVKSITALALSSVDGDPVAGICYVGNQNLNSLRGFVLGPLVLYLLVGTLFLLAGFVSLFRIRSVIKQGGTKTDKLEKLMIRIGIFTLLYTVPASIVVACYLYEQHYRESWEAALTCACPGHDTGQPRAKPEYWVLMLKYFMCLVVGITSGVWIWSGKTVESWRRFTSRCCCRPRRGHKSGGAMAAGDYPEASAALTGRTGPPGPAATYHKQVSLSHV"}},
  "data": [
    {"binder": "B1", "values": [
      {"measurement": "binding result", "setting": "LRP6", "value": "no binding"}
    ]},
    {"binder": "B2", "values": [
      {"measurement": "binding result", "setting": "USP8N", "value": "no binding"}
    ]},
    {"binder": "B3", "values": [
      {"measurement": "deubiquitination (ubiquitylation assay)", "setting": "FZD5", "value": "USP8C promoted deubiquitination of both FZD5 and SMO"},
      {"measurement": "deubiquitination (ubiquitylation assay)", "setting": "SMO", "value": "USP8C promoted deubiquitination of both FZD5 and SMO"}
    ]}
  ]
}
